Paper PMC6292858

Biological target: DREP2 CIDE domain (amino acids 1–84), wild-type (Drosophila melanogaster)
Experiment: SEC-MALS; self-association; Superdex 200 HR 10/30 coupled to three-angle light scattering and refractive index detectors, 0.2 mL/min; wild type measured in 50 mM NaCl and in 1 M NaCl

stoichiometry N: 16 to 18 molecules
Substance: DREP2 CIDE domain (amino acids 1–84), wild-type (domain or fragment)
